Results: patent US11634477 (dated 2023)

How the values were obtained:
[1] = biological target: SARS-CoV-2 RBD (SARS-CoV-2, UniProt P0DTC2); test: ELISA
[2] = biological target: SARS-CoV RBD (SARS-CoV, UniProt P59594); test: ELISA

Binder	EC50 [1] [ng/mL]	EC50 [2] [ng/mL]
C005 (antibody, V domains shown) VH: QVQLVQSGPEVKKPGTSVKVSCKASGFTFTSSAVQWVRQARGQRLEWIGWIVVGSGNTNYAQKFQERVTITRDMSTSTAYMELSSLRSEDTAVYYCAAPHCSGGSCLDAFDIWGQGTMVTVSS VL: not shown	4.41	> 1000
C216 (antibody, V domains shown) VH: EVQLVESGGGLVQPGGSLRLSCAASGFTFSSYDMHWVRQATGKGLEWVSAIGTAGDTYYPDSVKGRFTISRENAKNSLYLQMNSLRAGDTAVYYCARDRGSSGWYGWYFDLWGRGTLVTVSS VL: not shown	9.53	> 1000
C107 (antibody, V domains shown) VH: QVQLVQSGAEVKKPGASVRVSCKASGYTFTSYGFSWVRQAPGQGLEWMGWISAYNGNTNFAQKLQGRVTMTTDTSTSTAYMELRSLRSDDTAVYYCARGEAVAGTTGFFDYWGQGTLVTVSS VL: not shown	11.6	> 1000
C021 (antibody, V domains shown) VH: QVQLQESGPGLVKPSQTLSLTCTVSGGSISSGGYYWSWIRQHPGKGLEWIGYIYYSGSTYYNPSLKSRVTISVDTSKNQFSLKLSSVTAADTAVYYCARVWQYYDSSGSFDYWGQGTLVTVSS VL: not shown	1.25	> 1000
C141 (antibody, V domains shown) VH: not shown VL: NFMLTQPHSVSESPGKTVTISCTGSSGSIASNYVQWYQQRPGSAPTTVIYEDNQRPSGVPDRFSGSIDSSSNSASLTISGLKTEDEADYYCQSYDSSNWVFGGGTKLTVL	1.71	> 1000
C018 (antibody, V domains shown) VH: not shown VL: DIQLTQSPSSLSASVGDRVTITCRASQSIRSYLNWYQQKPGKAPKLLIYAASSLQSGVPSRFSGSGSGTDFTLTISSLQPDDFATYYCQQSYSTPPATFGQGTKLEIK	1.53	> 1000
C202 (antibody, V domains shown) VH: EVQLVESGGGLVQPGGSLRLSCAASGFTVSSNYMSWVRQAPGKGLEWVSLIYSGGSTYYADSVKGRFTISRDNSKNTLYLQMNSLRAEDTAVYYCARDTLGRGGDYWGQGTLVTVSS VL: DIQLTQSPSSLSASVGDRVTITCQASQDISNYLNWYQQKPGKAPKLLIYDASNLETGVPSRFSGSGSGTDFTFTISSLQPEDIATYYCQQYDNLPRSFGQGTKLEIK	3.4	> 1000
C154 (antibody, V domains shown) VH: QVQLVESGGGVVQPGRSLRLSCAASGFTFSRYGMHWVRQAPGKGLEWVAVMSYDGSSKYYADSVKGRFTISRDNSKNTLCLQMNSLRAEDTAVYYCAKQAGPYCSGGSCYSAPFDYWGQGTLVTVSS VL: DIQMTQSPSSLSASVGDRVTITCQASQGISNYLNWYQQKPGKAPKLLIYDASNLETGVPSRFSGSGSGTDFTFTISSLQPEDIATYYCQQYDNLPITFGQGTRLEIK	2.92	10.7
C143 (antibody, V domains shown) VH: EVQLVESGGGLVQPGGSLRLSCAASGFSVSTKYMTWVRQAPGKGLEWVSVLYSGGSDYYADSVKGRFTISRDNSKNALYLQMNSLRVEDTGVYYCARDSSEVRDHPGHPGRSVGAFDIWGQGTMVTVSS VL: QSALTQPASVSGSPGQSITISCTGTSNDVGSYTLVSWYQQYPGKAPKLLIFEGTKRSSGISNRFSGSKSGNTASLTISGLQGEDEADYYCCSYAGASTFVFGGGTKLTVL	3.66	> 1000
C164 (antibody, V domains shown) VH: EVQLVESGGGLVQPGGSLRLSCAASGFSVSTKYMTWVRQAPGKGLEWVSVLYSGGSDYYADSVKGRFTISRDNSKNALYLQMNSLRVEDTGVYYCARDSSEVRDHPGHPGRSVGAFDIWGQGTMVTVSS VL: QSALTQPASVSGSPGQSITISCTGTSNDVGSYTLVSWYQQYPGKAPKLLIFEVTKRSSGISNRFSGSKSGNTASLTISGLQGEDEADYYCCSYAGASTFVFGGGTKLTVL	2.06	> 1000
C110 (antibody, V domains shown) VH: QVQLQQSGAEVKKPGESLKISCKGSGYSFTSYWIGWVRQMPGKGLEWMGIIYPGDSDTRYSPSFQGQVTISADKSISTAYMQWSSLKASDTAMYYCARSFRDDPRIAVAGPADAFDIWGQGTMVTVSS VL: DIQMTQSPSTLSASVGDRVTITCRASQSISYWLAWYQQKPGKAPKLLIYQASSLESGVPSRFSGSESGTEFTLTISSLQPDDFATYYCQQYNSYPYTFGQGTKLEIK	7.29	> 1000
C116 (antibody, V domains shown) VH: QVQLVESGGGVVQPGRSLRLSCAASGFTYSTYAMHWVRQAPGKGLEWVAFISYDGSNKYYADSVKGRFTISRDNSKNTLYLQMNSLRAEDTAVYYCARDFYHNWFDPWGQGTLVTVSS VL: NFMLTQPHSVSESPGKTVTISCTGSSGSIASNYVQWYQQRPGSAPTTVIYEDNQRPSGVPDRFSGSIDRSSNSASLTISGLKTEDEADYYCQSYDSGNHWVVFGGGTRLTVL	37.6	> 1000
C121 (antibody, V domains shown) VH: not shown VL: QSALTQPASVSGSPGQSITISCTGTSSDVGSYNLVSWYQQHPGKAPKLMIYEGSKRPSGVSNRFSGSKSGNTASLTISGLQAEDEADYYCCSYAGSSTLVFGGGTKLTVL	2.85	> 1000
C205 (antibody, V domains shown) VH: QVQLVQSGAEVKKPGASVKVSCKASGHTFTSYYMHWVRQAPGQGLEWMGIINPSGGSTSYAQKFQGRVTMTRDTSTSTVYMELSSLRSEDTAVYYCARGPERGIVGATDYFDYWGQGTLVTVSS VL: not shown	> 1000	> 1000
C030 (antibody, V domains shown) VH: EVQLVESGGGVVQPGRSLRLSCAASGFTFSSYGMHWVRQAPGKGLEWVAVISYDGSNKYYADSVKGRFTISRDNSKNTLYLQMNSLRAEDTAVYYCAKASGIYCSGGNCYSYYFDYWGQGTLVTVSS VL: not shown	2.89	> 1000
C140 (antibody, V domains shown) VH: EVQLVESGGGLVQPGGSLRLSCAASGVTVSSNYMSWVRQAPGKGLEWVSLIYSGGSTFYADSVKGRFTISRDNSENTLYLQMNTLRAEDTAVYYCARDLYYYGMDVWGQGTTVTVSS VL: DIQLTQSPSFLSASVGDRVTITCRASQGISSYLAWYQQKPGKAPKLLIYAASTLQSGVPSRFSGSGSGTEFTLTISSLQPEDFATYYCQQLNSYSYTFGQGTKLEIK	2.19	> 1000
C122 (antibody, V domains shown) VH: EVQLVESGGGLIQPGGSLRLSCAASGLTVSSNYMSWVRQAPGKGLEWVSVLYSGGSSFYADSVKGRFTISRDNSKNTLYLQMNSLRAEDTAVYYCARESGDTTMAFDYWGQGTLVTVSS VL: DIQLTQSPSFLSASVGDRVTITCRASQGISSYLAWYQQKPGKAPKLLIYAASTLQSGVPSRFSGSGSGTEFTLTISSLQPEDFATYYCQQLNSDSYTFGQGTKLEIK	2.67	> 1000
C123 (antibody, V domains shown) VH: EVQLVESGGGLIQPGGSLRLSCAASGVTVSRNYMSWVRQAPGKGLEWVSVIYSGGSTYYADSVKGRFTISRDNSKNTLYLQMNSLRAEDTAVYYCARDLSAAFDIWGQGTMVTVSS VL: DIQLTQSPSFLSASVGDRVTITCRASQGISSYLAWYQQKPGKAPKLLIYAASTLQSGVPSRFSGSGSGTEFTLTISSLQPEDFATYYCQQLNSYPPAFGQGTRLEIK	1.92	> 1000
C210 (antibody, V domains shown) VH: EVQLVESGGGLIQPGGSLRLSCAASGFTVSSNYMSWVRQAPGKGLEWVSVIYSGGSTFYADSVKGRFTFSRDNSKNTLYLQMNSLRAEDTAVYYCARDLMAYGMDVWGQGTTVTVSS VL: DIQLTQSPSFLSASVGDRVTITCRASQGISSYLAWYQQKPGKAPKLLIYAASTLQSGVPSRFSGSGSGTEFTLTISSLQPEDFATYYCQQLNSYPQGTFGGGTKVEIK	2.83	> 1000
C019 (antibody, V domains shown) VH: QVQLVQSGAEVKKPGASVKVSCKASGYTFTSYYMHWVRQAPGQGLEWMGIINPSGGSTSYAQKFQGRVTMTRDTSTSTVYMELSSLRSEDTAVYYCARVPREGTPGFDPWGQGTLVTVSS VL: not shown	11.8	> 1000
C117 (antibody, V domains shown) VH: QVQLVESGGGVVQPGRSLRLSCAASGFTFSTYAMHWVRQAPGEGLEWVAVISYDGSNTYYADSVKGRFTISRDNSKNTLYLQMNSLRAEDTAVYYCARDPIWFGELLSPPFVHFDYWGQGTLVTVSS VL: QSVLTQPPSVSAAPGQKVTISCSGSSSNIGNNLVSWYQQLPGTAPKLLIYENNKRPSGIPDRFSGSKSGTSATLGITGLQTGDEADYYCGAWDSSLSAGGVYVFGTGTKVTVL	5.38	> 1000
C201 (antibody, V domains shown) VH: EVQLVESGGGLVQPGRSLRLSCAASGFTFDDYAMHWVRQAPGKGLEWVSGISWNSGSIGYADSVKGRFTISRDNAKNSLYLQMNSLRAEDTALYYCVKGVEYSSSSNFDYWGQGTLVTVSS VL: IRMTQSPSSVSASVGDRVTITCRASQGISSWLAWYQQKPGKAPKLLIYVESSLQSGVPSRFSGSGSGTDFTLTISSLQPEDFATYYCQQANSFPLTFGGGTKVEIK	2.98	> 1000
C006 (antibody, V domains shown) VH: QVQLVESGGGLVKPGGSLRLSCAASGFIFSDYCMSWIRRAPGKGLEWLSYISNSGTTRYYADSVKGRFTISRDNGRNSLYLQMDSLSAEDTAVYYCARRGDGSSSIYYYNYMDVWGKGTTVTVSS VL: not shown	1.81	> 1000
C031 (antibody, V domains shown) VH: EVQLVESGGGLVQPGGSLRLSCAASGFTFSSYDMHWVRQATGKGLEWVSAIGTAGDTYYPGSVKGRFTISRENAKNSLYLQMNSLRAGDTAVYYCARVGYDSSGYSGWYFDLWGRGTLVTVSS VL: not shown	22.7	> 1000
